Common to all, as to format: biochemical
Holding throughout (settings): other: substrate on purified human 20S proteasome; pH 8.0; 37.0 °C

Substrate in data set [1]: Cc1cc(=O)oc2cc(NC(=O)[C@H](CCC(=O)O)NC(=O)[C@H](CC(C)C)NC(=O)[C@H](CC(C)C)NC(=O)OCc3ccccc3)ccc12
As to the kind of experiment: Proteasome activity measurement, caspase-like.

Substrate in data set [2]: Cc1cc(=O)oc2cc(NC(=O)[C@H](CCCNC(=N)N)NC(=O)CNC(=O)[C@@H](NC(=O)c3ccccc3)C(C)C)ccc12
As to the kind of experiment: Proteasome activity measurement, trypsin-like.

Substrate in data set [3]: Cc1cc(=O)oc2cc(NC(=O)[C@H](Cc3ccc(O)cc3)NC(=O)[C@@H](NC(=O)[C@H](CC(C)C)NC(=O)[C@H](CC(C)C)NC(=O)CCC(=O)O)C(C)C)ccc12
As to the kind of experiment: Proteasome activity measurement, chymotrypsin-like.

Consider three proteins from publication PMC3408433, “Selective Cytotoxicity of Amidinopiperidine Based Compounds Towards Burkitt’s Lymphoma Cells Involves Proteasome Inhibition” (PLoS ONE, 2012).

One may read the Km as the concentration of substrate that gives half-maximal velocity.

B1: caspase-like activity of human 20S proteasome (Homo sapiens) (protein)
chain: TTIMAVQFDGGVVLGADSRTTTGSYIANRVTDKLTPIHDRIFCCRSGSAADTQAVADAVTYQLGFHSIELNEPPLVHTAASLFKEMCYRYREDLMAGIIIAGWDPQEGGQVYSVPMGGMMVRQSFAIGGSGSSYIYGYVDATYREGMTKEECLQFTANALALAMERDGSSGGVIRLAAIAESGVERQVLLGDQIPKFAVATLPPA
notes: purchased Boston Biochem, Inc
On to B1, for which, in data set [1], the Km worked out at 37 ± 9 µM.

B2: trypsin-like activity of human 20S proteasome (Homo sapiens) (protein)
chain: TTIAGVVYKDGIVLGADTRATEGMVVADKNCSKIHFISPNIYCCGAGTAADTDMTTQLISSNLELHSLSTGRLPRVVTANRMLKQMLFRYQGYIGAALVLGGVDVTGPHLYSIYPHGSTDKLPYVTMGSGSLAAMAVFEDKFRPDMEEEEAKNLVSEAIAAGIFNDLGSGSNIDLCVISKNKLDFLRPYTVPNKKGTRLGRYRCEKGTTAVLTEKITPLEIEVLEETVQTMDTS
notes: purchased Boston Biochem, Inc
Regarding B2, the Km in data set [2] came to 44 ± 5 µM.

B3: chymotrypsin-like activity of human 20S proteasome (Homo sapiens) (protein)
chain: TTTLAFKFRHGVIVAADSRATAGAYIASQTVKKVIEINPYLLGTMAGGAADCSFWERLLARQCRIYELRNKERISVAAASKLLANMVYQYKGMGLSMGTMICGWDKRGPGLYYVDSEGNRISGATFSVGSGSVYAYGVMDRGYSYDLEVEQAYDLARRAIYQATYRDAYSGGAVNLYHVREDGWIRVSSDNVADLHEKYSGSTP
notes: purchased Boston Biochem, Inc
In the case of B3, the Km in data set [3] was determined as 100 ± 12 µM.
